Test results as given in patent publication US20250255972A1, “METHOD OF TREATING UVEITIS WITH MULTIVALENT PROTEIN-HYALURONIC ACID POLYMER CONJUGATE” (Valitor, Inc., priority 2022, published 2025).

Molecular target: T1, Human IL-1β, Fc tagged (Acro Biosystems ILA-H525c) (human, UniProt P01584 117-269)
T1 construct: Bought BLI ligand, loaded on anti-human Fc probes; also called BLI ligand; not shown: Fc tag
Assay: BLI (Gator), Fc-tagged IL-1β on anti-human Fc probes, conjugate as analyte, 1:1 global fit

Kd: 0.353 nM
B1: (SEQ ID NO:106)+HyA (850 kDa) conjugate #9, valency 15 (other)
scFv: EIVMTQSPSTLSASVGDRVIITCQASQSIDNWLSWYQQKPGKAPKLLIYRASTLASGVPSRFSGSGSGAEFTLTISSLQPDDFATYYCQNTGGGVSIAFGQGTKLTVLGGGGGSGGGGSGGGGSGGGGSEVQLVESGGGLVQPGGSLRLSCTASGFSLSSAAMAWVRQAPGKGLEWVGIIYDSASTYYASWAKGRFTISRDTSKNTVYLQMNSLRAEDTAVYYCARERAIFSGDFVLWGQGTLVTVSSSPSTPPTPSPSTPPGGC
modifications: C-terminal cysteine thiol of the rigid peptide linker joined through the EMCH organic linker to hyaluronic acid
